Experimental findings from the supplement of paper PMC5998384 are described below.

Data set [1] has as its system HeLa Kyoto. Description: thermal stability score vs G1/S (z-score of summed log2 fold changes over temperatures); higher = more thermally stable than in G1/S.
The test system of data set [2] is HeLa Kyoto. Put plainly: solubility change mitosis vs G1/S (difference of NP-40 vs SDS log2 ratios) (log2 ratio difference); higher = more soluble in mitosis.
Data set [3] relates to HeLa Kyoto. Description: melting temperature (median over replicates), in situ; higher = more thermally stable.
Data set [4] deals with HeLa Kyoto. Description: solubility in G1/S (NP-40 vs SDS abundance) (log2 ratio); higher = more soluble. Particulars: cell cycle stage: G1/S.
Where [5] appears, read: cell cycle stage: early G1 (4.5 h after nocodazole release).
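Wherever melting temperature (median over replicates), in situ is given: HeLa Kyoto cells synchronized by double thymidine or nocodazole block, proteins quantified by TMT10plex mass spectrometry, three independent biological replicates.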
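Wherever solubility change mitosis vs G1/S (difference of NP-40 vs SDS log2 ratios) is given: synchronized HeLa Kyoto cells (double thymidine block for G1/S, nocodazole release for mitosis), protein amounts in NP-40 versus SDS lysates quantified by mass spectrometry, three biological replicates.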
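Wherever solubility in G1/S (NP-40 vs SDS abundance) is given: HeLa Kyoto cells arrested at G1/S by double thymidine block, proteins quantified by TMT10plex mass spectrometry in mild NP-40 versus SDS extracts, three biological replicates.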
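Wherever thermal stability score vs G1/S (z-score of summed log2 fold changes over temperatures) is given: synchronized HeLa Kyoto cells, proteins quantified by TMT10plex mass spectrometry, three biological replicates, mitosis taken 0.5 h after nocodazole release, G1/S directly after double thymidine block.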

Take “MAAAGRLPSSWALFSPLLAGLALLGVGPVPARALHNVTAELFGAEAWGTLAAFGDLNSDKQTDLFVLRERNDLIVFLADQNAPYFKPKVKVSFKNHSALITSVVPGDYDGDSQMDVLLTYLPKNYAKSELGAVIFWGQNQTLDPNNMTILNRTFQDEPLIMDFNGDLIPDIFGITNESNQPQILLGGNLSWHPALTTTSKMRIPHSHAFIDLTEDFTADLFLTTLNATTSTFQFEIWENLDGNFSVSTILEKPQNMMVVGQSAFADFDGDGHMDHLLPGCEDKNCQKSTIYLVRSGMKQWVPVLQDFSNKGTLWGFVPFVDEQQPTEIPIPITLHIGDYNMDGYPDALVILKNTSGSNQQAFLLENVPCNNASCEEARRMFKVYWELTDLNQIKDAMVATFFDIYEDGILDIVVLSKGYTKNDFAIHTLKNNFEADAYFVKVIVLSGLCSNDCPRKITPFGVNQPGPYIMYTTVDANGYLKNGSAGQLSQSAHLALQLPYNVLGLGRSANFLDHLYVGIPRPSGEKSIRKQEWTAIIPNSQLIVIPYPHNVPRSWSAKLYLTPSNIVLLTAIALIGVCVFILAIIGILHWQEKKADDREKRQEAHRFHFDAM [ITFG1]”: the thermal stability score was determined as 0.328 in the data set with HeLa Kyoto [1] (setting [5]) and 0.713 in the data set on HeLa Kyoto [1] (cell cycle stage: mitosis). Also, the “solubility change mitosis (log2)” value with HeLa Kyoto [2] is -0.259. The melting temperature in the data set on HeLa Kyoto [3] (cell cycle stage: G1/S) was determined as 55.9 °C; with HeLa Kyoto [3] (cell cycle stage: mitosis), 57.5 °C. The “solubility in G1/S (log2)” value in the data set with HeLa Kyoto [4] is 0.327.

Take “MTSFRLALIQLQISSIKSDNVTRACSFIREAATQGAKIVSLPECFNSPYGAKYFPEYAEKIPGESTQKLSEVAKECSIYLIGGSIPEEDAGKLYNTCAVFGPDGTLLAKYRKIHLFDIDVPGKITFQESKTLSPGDSFSTFDTPYCRVGLGICYDMRFAELAQIYAQRGCQLLVYPGAFNLTTGPAHWELLQRSRAVDNQVYVATASPARDDKASYVAWGHSTVVNPWGEVLAKAGTEEAIVYSDIDLKKLAEIRQQIPVFRQKRSDLYAVEMKKP [NIT2]”: the thermal stability score is -0.442 in the data set on HeLa Kyoto [1] (setting [5]) and -1.62 in the data set on HeLa Kyoto [1] (cell cycle stage: mitosis). Besides, the “solubility change mitosis (log2)” value in the data set on HeLa Kyoto [2] was -0.0539. Further, the melting temperature amounted to 54.5 °C in the data set on HeLa Kyoto [3] (cell cycle stage: G1/S) and 54.4 °C with HeLa Kyoto [3] (cell cycle stage: mitosis). Also, the “solubility in G1/S (log2)” value in the data set with HeLa Kyoto [4] worked out at 0.178.

In the case of “MASGGSGGVSVPALWSEVNRYGQNGDFTRALKTVNKILQINKDDVTALHCKVVCLIQNGSFKEALNVINTHTKVLANNSLSFEKAYCEYRLNRIENALKTIESANQQTDKLKELYGQVLYRLERYDECLAVYRDLVRNSQDDYDEERKTNLSAVVAAQSNWEKVVPENLGLQEGTHELCYNTACALIGQGQLNQAMKILQKAEDLCRRSLSEDTDGTEEDPQAELAIIHGQMAYILQLQGRTEEALQLYNQIIKLKPTDVGLLAVIANNIITINKDQNVFDSKKKVKLTNAEGVEFKLSKKQLQAIEFNKALLAMYTNQAEQCRKISASLQSQSPEHLLPVLIQAAQLCREKQHTKAIELLQEFSDQHPENAAEIKLTMAQLKISQGNISKACLILRSIEELKHKPGMVSALVTMYSHEEDIDSAIEVFTQAIQWYQNHQPKSPAHLSLIREAANFKLKYGRKKEAISDLQQLWKQNPKDIHTLAQLISAYSLVDPEKAKALSKHLPSSDSMSLKVDVEALENSAGATYIRKKGGKVTGDSQPKEQGQGDLKKKKKKKKGKLPKNYDPKVTPDPERWLPMRERSYYRGRKKGKKKDQIGKGTQGATAGASSELDASKTVSSPPTSPRPGSAATVSASTSNIIPPRHQKPAGAPATKKKQQQKKKKGGKGGW [SRP72]”, the thermal stability score was -0.0233 in the data set on HeLa Kyoto [1] (setting [5]) and 0.35 with HeLa Kyoto [1] (cell cycle stage: mitosis). In the data set on HeLa Kyoto [2], the “solubility change mitosis (log2)” value is 0.328. Moreover, the melting temperature was 50.5 °C in the data set with HeLa Kyoto [3] (cell cycle stage: G1/S) and 49.7 °C with HeLa Kyoto [3] (cell cycle stage: mitosis). The “solubility in G1/S (log2)” value in the data set on HeLa Kyoto [4] is -0.278.

For the sequence “MSSSGLNSEKVAALIQKLNSDPQFVLAQNVGTTHDLLDICLKRATVQRAQHVFQHAVPQEGKPITNQKSSGRCWIFSCLNVMRLPFMKKLNIEEFEFSQSYLFFWDKVERCYFFLSAFVDTAQRKEPEDGRLVQFLLMNPANDGGQWDMLVNIVEKYGVIPKKCFPESYTTEATRRMNDILNHKMREFCIRLRNLVHSGATKGEISATQDVMMEEIFRVVCICLGNPPETFTWEYRDKDKNYQKIGPITPLEFYREHVKPLFNMEDKICLVNDPRPQHKYNKLYTVEYLSNMVGGRKTLYNNQPIDFLKKMVAASIKDGEAVWFGCDVGKHFNSKLGLSDMNLYDHELVFGVSLKNMNKAERLTFGESLMTHAMTFTAVSEKDDQDGAFTKWRVENSWGEDHGHKGYLCMTDEWFSEYVYEVVVDRKHVPEEVLAVLEQEPIILPAWDPMGALAE [BLMH]”, the thermal stability score in the data set on HeLa Kyoto [1] (setting [5]) was -1.55; in the data set on HeLa Kyoto [1] (cell cycle stage: mitosis) it was -0.29. Moreover, the “solubility change mitosis (log2)” value with HeLa Kyoto [2] was -0.251. For the same sequence, the melting temperature turned out to be 58.1 °C in the data set with HeLa Kyoto [3] (cell cycle stage: G1/S) and 59 °C in the data set on HeLa Kyoto [3] (cell cycle stage: mitosis). For the same sequence, the “solubility in G1/S (log2)” value in the data set on HeLa Kyoto [4] was -0.128.

Consider “MLLLPSAADGRGTAITHALTSASTLCQVEPVGRWFEAFVKRRNRNASASFQELEDKKELSEESEDEELQLEEFPMLKTLDPKDWKNQDHYAVLGLGHVRYKATQRQIKAAHKAMVLKHHPDKRKAAGEPIKEGDNDYFTCITKAYEMLSDPVKRRAFNSVDPTFDNSVPSKSEAKDNFFEVFTPVFERNSRWSNKKNVPKLGDMNSSFEDVDIFYSFWYNFDSWREFSYLDEEEKEKAECRDERRWIEKQNRATRAQRKKEEMNRIRTLVDNAYSCDPRIKKFKEEEKAKKEAEKKAKAEAKRKEQEAKEKQRQAELEAARLAKEKEEEEVRQQALLAKKEKDIQKKAIKKERQKLRNSCKTWNHFSDNEAERVKMMEEVEKLCDRLELASLQCLNETLTSCTKEVGKAALEKQIEEINEQIRKEKEEAEARMRQASKNTEKSTGGGGNGSKNWSEDDLQLLIKAVNLFPAGTNSRWEVIANYMNIHSSSGVKRTAKDVIGKAKSLQKLDPHQKDDINKKAFDKFKKEHGVVPQADNATPSERFEGPYTDFTPWTTEEQKLLEQALKTYPVNTPERWEKIAEAVPGRTKKDCMKRYKELVEMVKAKKAAQEQVLNASRAKK [DNAJC2]”, for which the thermal stability score in the data set on HeLa Kyoto [1] (setting [5]) came to 1.17; in the data set on HeLa Kyoto [1] (cell cycle stage: mitosis), 1.39. Also, in the data set with HeLa Kyoto [2], the “solubility change mitosis (log2)” value is -0.0365. Further, the melting temperature with HeLa Kyoto [3] (cell cycle stage: G1/S) turned out to be 48.6 °C; in the data set with HeLa Kyoto [3] (cell cycle stage: mitosis), 48.7 °C. For the same sequence, the “solubility in G1/S (log2)” value in the data set with HeLa Kyoto [4] came to 0.0111.
